Results published in article PMC9482650, “Quantitative fragmentomics allow affinity mapping of interactomes” (Nature Communications, 2022).

Legend:
Assay in all cases: holdup assay
Parameters in all cases: key: below the threshold = too weak to quantify, mostly under pKd 3.1 to 4
[1] = target: AHNAK1, Q09666
[2] = target: T1, APBA3_1, O96018
T1 sequence (O96018 389-490, limits assumed, looked up): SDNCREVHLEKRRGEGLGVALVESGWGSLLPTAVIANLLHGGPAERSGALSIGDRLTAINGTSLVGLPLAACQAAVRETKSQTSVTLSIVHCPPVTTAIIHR

[3] = target: T2, CARD11, Q9BXL7
T2 sequence (Q9BXL7 662-765, limits assumed, looked up): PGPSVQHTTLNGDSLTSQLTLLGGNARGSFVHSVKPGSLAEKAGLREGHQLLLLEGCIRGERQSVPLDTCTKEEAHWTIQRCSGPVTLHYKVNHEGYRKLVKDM

[4] = target: DLG1_3, Q12959
[5] = target: DLG2_2, Q15700
[6] = target: DLG4_3, P78352
[7] = target: FRMPD2_2, Q68DX3
[8] = target: GORASP1, Q9BQQ3
[9] = target: GORASP2, Q9H8Y8
[10] = target: GRID2IP_1, A4D2P6
[11] = target: GRID2IP_2, A4D2P6
[12] = target: T3, GRIP1_7, Q9Y3R0
T3 sequence (Q9Y3R0 999-1096, limits assumed, looked up): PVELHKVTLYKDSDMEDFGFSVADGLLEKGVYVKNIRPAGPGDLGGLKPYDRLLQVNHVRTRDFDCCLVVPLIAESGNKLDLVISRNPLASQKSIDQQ

[13] = target: GRIP2_5, Q9C0E4
[14] = target: GRIP2_7, Q9C0E4
[15] = target: HTRA2, O43464
[16] = target: T4, HTRA3, P83110
T4 sequence (P83110 354-453, limits assumed, looked up): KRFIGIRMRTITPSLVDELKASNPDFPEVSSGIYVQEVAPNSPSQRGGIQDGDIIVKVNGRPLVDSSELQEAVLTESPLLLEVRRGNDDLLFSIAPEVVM

[17] = target: LDB3, O75112
[18] = target: T5, LIN7C, Q9NUP9
T5 sequence (Q9NUP9 88-185, limits assumed, looked up): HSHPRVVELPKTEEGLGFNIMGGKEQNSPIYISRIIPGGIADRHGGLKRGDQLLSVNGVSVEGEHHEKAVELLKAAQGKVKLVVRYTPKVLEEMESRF

[19] = target: MAGI2_2, Q86UL8
[20] = target: MAGI2_5, Q86UL8
[21] = target: MAST1, Q9Y2H9
[22] = target: T6, MPDZ_12, O75970
T6 sequence (O75970 1857-1958, limits assumed, looked up): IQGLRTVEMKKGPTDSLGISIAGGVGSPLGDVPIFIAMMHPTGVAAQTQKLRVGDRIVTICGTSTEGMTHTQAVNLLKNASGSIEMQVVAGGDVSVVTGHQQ

[23] = target: NHERF2_2, Q15599
[24] = target: SCRIB_1, Q14160
[25] = target: T7, SNTA1, Q13424
T7 sequence (Q13424 82-180, limits assumed, looked up): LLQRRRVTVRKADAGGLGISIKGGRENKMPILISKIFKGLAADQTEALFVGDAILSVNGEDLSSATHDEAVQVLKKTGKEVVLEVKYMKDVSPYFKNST

[26] = target: T8, SNTG2, Q9NY99
T8 sequence (Q9NY99 68-166, limits assumed, looked up): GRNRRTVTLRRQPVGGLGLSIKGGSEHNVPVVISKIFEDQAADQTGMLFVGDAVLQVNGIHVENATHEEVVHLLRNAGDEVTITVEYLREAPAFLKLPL

[27] = target: T9, SYNJ2BP, P57105
T9 sequence (P57105 8-110, limits assumed, looked up): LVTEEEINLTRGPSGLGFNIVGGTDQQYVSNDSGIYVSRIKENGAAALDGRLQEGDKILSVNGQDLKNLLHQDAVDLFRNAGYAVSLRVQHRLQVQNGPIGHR

[28] = target: T10, TIAM2, Q8IVF5
T10 sequence (Q8IVF5 885-986, limits assumed, looked up): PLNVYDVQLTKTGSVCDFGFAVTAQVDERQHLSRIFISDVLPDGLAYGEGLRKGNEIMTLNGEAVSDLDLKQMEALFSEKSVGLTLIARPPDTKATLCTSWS

[29] = plain residues with an end cap or a label only (N-terminal biotin on a linker: ttds)
[30] = plain residues with an end cap or a label only (N-terminal biotin on a linker: ahx)
[31] = plain residues with an end cap or a label only (N-terminal biotin on a linker: ado-ado)

Chain of MAGI2_5, Q86UL8 (Q86UL8 915-1017): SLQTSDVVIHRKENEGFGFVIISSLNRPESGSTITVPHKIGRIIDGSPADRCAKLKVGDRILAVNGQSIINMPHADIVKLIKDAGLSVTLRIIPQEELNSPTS
Chain of GRID2IP_2, A4D2P6 (A4D2P6 272-370): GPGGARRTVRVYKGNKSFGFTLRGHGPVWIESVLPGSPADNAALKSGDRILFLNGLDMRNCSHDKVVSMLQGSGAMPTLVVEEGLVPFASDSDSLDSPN
Chain of GRIP2_7, Q9C0E4 (Q9C0E4 934-1023): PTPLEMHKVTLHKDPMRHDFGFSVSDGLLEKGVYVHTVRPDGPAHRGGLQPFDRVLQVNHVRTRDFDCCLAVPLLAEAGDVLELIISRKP
Chain of GRID2IP_1, A4D2P6 (A4D2P6 1-87): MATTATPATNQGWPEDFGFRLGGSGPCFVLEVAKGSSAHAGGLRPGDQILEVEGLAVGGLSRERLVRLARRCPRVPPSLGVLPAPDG
Chain of GORASP1, Q9BQQ3 (Q9BQQ3 1-208): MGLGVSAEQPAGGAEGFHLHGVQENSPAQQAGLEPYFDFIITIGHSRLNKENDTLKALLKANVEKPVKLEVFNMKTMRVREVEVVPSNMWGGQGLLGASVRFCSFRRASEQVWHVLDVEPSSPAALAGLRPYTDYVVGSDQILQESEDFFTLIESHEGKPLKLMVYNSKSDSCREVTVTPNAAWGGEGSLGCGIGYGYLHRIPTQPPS
Chain of GRIP2_5, Q9C0E4 (Q9C0E4 544-642): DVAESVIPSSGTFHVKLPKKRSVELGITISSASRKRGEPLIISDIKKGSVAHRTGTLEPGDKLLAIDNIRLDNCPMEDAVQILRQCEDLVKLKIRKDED
Chain of LDB3, O75112 (O75112 1-94): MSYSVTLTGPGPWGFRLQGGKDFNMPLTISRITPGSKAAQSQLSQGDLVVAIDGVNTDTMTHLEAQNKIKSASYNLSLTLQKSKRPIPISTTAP
Chain of MAGI2_2, Q86UL8 (Q86UL8 410-522): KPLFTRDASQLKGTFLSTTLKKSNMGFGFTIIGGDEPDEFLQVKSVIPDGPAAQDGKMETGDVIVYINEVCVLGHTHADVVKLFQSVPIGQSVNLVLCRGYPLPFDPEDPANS
Chain of SCRIB_1, Q14160 (Q14160 718-814): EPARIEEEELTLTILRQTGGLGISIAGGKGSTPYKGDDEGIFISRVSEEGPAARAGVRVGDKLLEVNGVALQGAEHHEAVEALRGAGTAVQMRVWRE
Chain of DLG4_3, P78352 (P78352 306-403): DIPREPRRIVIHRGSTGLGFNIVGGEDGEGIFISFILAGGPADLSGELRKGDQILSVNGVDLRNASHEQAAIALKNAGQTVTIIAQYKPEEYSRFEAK
Chain of DLG1_3, Q12959 (Q12959 457-571): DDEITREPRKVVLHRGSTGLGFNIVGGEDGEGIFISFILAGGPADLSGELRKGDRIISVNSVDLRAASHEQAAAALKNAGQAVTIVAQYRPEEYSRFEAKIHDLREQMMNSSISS
Chain of MAST1, Q9Y2H9 (Q9Y2H9 962-1065): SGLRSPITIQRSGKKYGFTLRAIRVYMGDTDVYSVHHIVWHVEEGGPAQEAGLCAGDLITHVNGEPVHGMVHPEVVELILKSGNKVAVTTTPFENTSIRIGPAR
Chain of AHNAK1, Q09666 (Q09666 4-100): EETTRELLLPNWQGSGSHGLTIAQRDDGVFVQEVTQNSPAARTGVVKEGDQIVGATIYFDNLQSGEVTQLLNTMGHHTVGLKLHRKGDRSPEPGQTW
Chain of FRMPD2_2, Q68DX3 (Q68DX3 944-1038): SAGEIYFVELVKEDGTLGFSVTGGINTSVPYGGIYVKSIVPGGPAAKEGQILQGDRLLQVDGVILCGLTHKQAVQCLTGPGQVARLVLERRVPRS
Chain of DLG2_2, Q15700 (Q15700 189-283): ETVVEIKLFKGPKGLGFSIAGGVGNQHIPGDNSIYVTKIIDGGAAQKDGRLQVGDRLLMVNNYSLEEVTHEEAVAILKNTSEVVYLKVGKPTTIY
Chain of NHERF2_2, Q15599 (Q15599 142-238): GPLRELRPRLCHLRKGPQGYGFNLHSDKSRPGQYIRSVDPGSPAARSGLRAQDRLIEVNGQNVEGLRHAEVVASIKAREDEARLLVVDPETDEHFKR
Chain of HTRA2, O43464 (O43464 355-458): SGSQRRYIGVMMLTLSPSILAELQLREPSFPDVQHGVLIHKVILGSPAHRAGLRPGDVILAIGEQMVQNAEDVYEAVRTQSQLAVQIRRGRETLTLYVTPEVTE

B1: ARHGEF16, Q5VV41 (peptide)
chain: MERLRVETDV
pKd [1, 29]: 3.6 | pKd [2, 29]: below the threshold | pKd [3, 29]: below the threshold | pKd [4, 29]: 3.86 | pKd [5, 29]: 5.21 | pKd [6, 29]: below the threshold | pKd [7, 29]: 3.74 | pKd [8, 29]: below the threshold | pKd [9, 29]: 4.25 | pKd [10, 29]: below the threshold | pKd [11, 29]: 3.57 | pKd [12, 29]: below the threshold | pKd [13, 29]: below the threshold | pKd [14, 29]: 3.64 | pKd [15, 29]: below the threshold | pKd [16, 29]: below the threshold | pKd [17, 29]: below the threshold | pKd [18, 29]: below the threshold | pKd [19, 29]: 4.38 | pKd [20, 29]: below the threshold | pKd [21, 29]: 4.39 | pKd [22, 29]: below the threshold | pKd [23, 29]: below the threshold | pKd [24, 29]: 4.58 | pKd [25, 29]: 4.62 | pKd [26, 29]: 4.47 | pKd [27, 29]: 4.8 | pKd [28, 29]: below the threshold

B2: GRIN2B, Q13224 (peptide)
chain: EKLSSIESDV
pKd [1, 30]: below the threshold | pKd [2, 30]: below the threshold | pKd [3, 30]: below the threshold | pKd [4, 30]: below the threshold | pKd [5, 30]: below the threshold | pKd [6, 30]: below the threshold | pKd [7, 30]: 3.91 | pKd [8, 30]: below the threshold | pKd [9, 30]: below the threshold | pKd [10, 30]: below the threshold | pKd [11, 30]: below the threshold | pKd [12, 30]: 3.48 | pKd [13, 30]: below the threshold | pKd [14, 30]: 3.53 | pKd [15, 30]: below the threshold | pKd [16, 30]: below the threshold | pKd [17, 30]: below the threshold | pKd [18, 30]: below the threshold | pKd [19, 30]: below the threshold | pKd [20, 30]: 3.82 | pKd [21, 30]: 4.04 | pKd [22, 30]: below the threshold | pKd [23, 30]: below the threshold | pKd [24, 30]: 3.71 | pKd [25, 30]: 4.39 | pKd [26, 30]: 4.04 | pKd [27, 30]: 4.4 | pKd [28, 30]: 3.71

B3: HTR2C, P28335 (peptide)
chain: SVVSERISSV
pKd [1, 31]: below the threshold | pKd [2, 31]: below the threshold | pKd [3, 31]: below the threshold | pKd [4, 31]: below the threshold | pKd [5, 31]: 4.4 | pKd [6, 31]: below the threshold | pKd [7, 31]: 4.25 | pKd [8, 31]: below the threshold | pKd [9, 31]: 3.89 | pKd [10, 31]: below the threshold | pKd [11, 31]: 4.44 | pKd [12, 31]: below the threshold | pKd [13, 31]: below the threshold | pKd [14, 31]: below the threshold | pKd [15, 31]: below the threshold | pKd [16, 31]: below the threshold | pKd [17, 31]: below the threshold | pKd [18, 31]: below the threshold | pKd [19, 31]: 3.77 | pKd [20, 31]: 4.01 | pKd [21, 31]: 4.02 | pKd [22, 31]: below the threshold | pKd [23, 31]: below the threshold | pKd [24, 31]: below the threshold | pKd [25, 31]: 4.59 | pKd [26, 31]: below the threshold | pKd [27, 31]: 4.46 | pKd [28, 31]: 3.88

B4: PBK, Q96KB5 (peptide)
chain: HIVEALETDV
pKd [1, 29]: below the threshold | pKd [2, 29]: below the threshold | pKd [3, 29]: below the threshold | pKd [4, 29]: below the threshold | pKd [5, 29]: 5.28 | pKd [6, 29]: below the threshold | pKd [7, 29]: 4.66 | pKd [8, 29]: below the threshold | pKd [9, 29]: below the threshold | pKd [10, 29]: below the threshold | pKd [11, 29]: 3.96 | pKd [12, 29]: below the threshold | pKd [13, 29]: below the threshold | pKd [14, 29]: 3.91 | pKd [15, 29]: below the threshold | pKd [16, 29]: below the threshold | pKd [17, 29]: below the threshold | pKd [18, 29]: 4.05 | pKd [19, 29]: below the threshold | pKd [20, 29]: 3.98 | pKd [21, 29]: 5.15 | pKd [22, 29]: below the threshold | pKd [23, 29]: 3.97 | pKd [24, 29]: 5.32 | pKd [25, 29]: 5.28 | pKd [26, 29]: 4.85 | pKd [27, 29]: 4.35 | pKd [28, 29]: below the threshold

B5: HTLV1-TAX1, P03409 (peptide)
chain: SEKHFRETEV
pKd [1, 29]: 3.92 | pKd [2, 29]: below the threshold | pKd [3, 29]: below the threshold | pKd [4, 29]: 5.22 | pKd [5, 29]: 5.21 | pKd [6, 29]: 5.34 | pKd [7, 29]: below the threshold | pKd [8, 29]: below the threshold | pKd [9, 29]: below the threshold | pKd [10, 29]: below the threshold | pKd [11, 29]: 3.84 | pKd [12, 29]: below the threshold | pKd [13, 29]: below the threshold | pKd [14, 29]: 3.75 | pKd [15, 29]: below the threshold | pKd [16, 29]: below the threshold | pKd [17, 29]: below the threshold | pKd [18, 29]: 4.59 | pKd [19, 29]: 4.57 | pKd [20, 29]: 4.84 | pKd [21, 29]: below the threshold | pKd [22, 29]: below the threshold | pKd [23, 29]: below the threshold | pKd [24, 29]: 5.63 | pKd [25, 29]: 5.9 | pKd [26, 29]: 4.12 | pKd [27, 29]: 6.04 | pKd [28, 29]: below the threshold
